Measured values taken from patent US8095350.

Molecular target: T1, Human APOBEC-2 (APO2) containing residues 41-224 (human), Q9Y235
T1 chain: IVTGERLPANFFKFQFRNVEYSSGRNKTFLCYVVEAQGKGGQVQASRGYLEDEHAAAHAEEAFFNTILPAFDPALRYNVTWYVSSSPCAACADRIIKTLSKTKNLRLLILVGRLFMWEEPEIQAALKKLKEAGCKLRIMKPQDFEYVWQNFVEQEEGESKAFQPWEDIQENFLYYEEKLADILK
Assay: X-ray crystal structure, tetramer interface
Conditions: remark: other sources report otherwise

B1: Human APOBEC-2 (APO2) containing residues 41-224, Q9Y235 41-224 (enzyme, UniProt Q9Y235 41-224, looked up)
chain: IVTGERLPANFFKFQFRNVEYSSGRNKTFLCYVVEAQGKGGQVQASRGYLEDEHAAAHAEEAFFNTILPAFDPALRYNVTWYVSSSPCAACADRIIKTLSKTKNLRLLILVGRLFMWEEPEIQAALKKLKEAGCKLRIMKPQDFEYVWQNFVEQEEGESKAFQPWEDIQENFLYYEEKLADILK
total buried area within the tetramer interface: 1740 Å^2
